Patent US20170240628A1 (CELLMID, published 2017)
Substitutions are numbered along the chain they refer to.

T1: recombinant human midkine (huMK) (human, UniProt P21741 21-143)
T1 construct: also called human MK; Human MK
T1 sequence (looked up): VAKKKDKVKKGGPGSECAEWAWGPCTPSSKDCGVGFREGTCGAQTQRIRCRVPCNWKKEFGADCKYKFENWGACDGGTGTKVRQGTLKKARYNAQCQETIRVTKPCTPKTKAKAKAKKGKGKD

T2: recombinant murine midkine (muMK) (murine, UniProt P12025 23-140)
T2 construct: also called murine MK; Murine MK
T2 sequence (looked up): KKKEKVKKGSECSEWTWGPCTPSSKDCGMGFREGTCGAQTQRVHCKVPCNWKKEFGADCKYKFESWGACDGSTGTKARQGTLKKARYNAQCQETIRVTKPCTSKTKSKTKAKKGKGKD

B1: IP14-H5L2 (antibody, V domains shown)
VH: QVQLVQSGGGLVQPGGSLRLSCAASGQSFSSYWMNWVRQAPGQGLEWIGMIHPSDSETILNQKFKDKATLTVDISKNTAYLQMNSLRAEDTAVYYCSSWSAKRGDFWGQGTLVTVSS
VL: EIVLTQSPATLSLSPGERATLSCRASESISNNLHWYQQKPGQAPRLLIKYASQSISGIPARFSGSGPGTDFTLTISSVEPEDFAVYYCQQSNSWPLTFGGGTKLEIKR
notes: also called Hv5 Lv2
B2: IP14-H2L2 (antibody, V domains shown)
VH: QVQLVQSGAEVKKPGASVKVSCKASGQSFSSYWMNWVRQAPGQGLEWIGMIHPSDSETILNQKFKDKATLTVDISTSTAYMELSSLRSEDTAVYYCSSWSAKRGDFWGQGTLVTVSS
VL: B1 VL
notes: also called Hv2 Lv2
B3: IP14 Hv0 Lv2 (antibody, V domains shown)
VH: QVQLQQPGAELVRPGHSVKLSCKASGQSFSSYWMNWVRQRPGQGLEWIGMIHPSDSETILNQKFKDKATLTVDISSNTAYMQLSSPTSEDSAVYFCSSWSAKRGDFWGQGTTLTVSS
VL: B1 VL
B4: IP14-H6L1 (antibody, V domains shown)
VH: B1 VH with Q13K, G16H, Q43K, T71S, S75A, T78S
VL: B1 VL with T20N, G41H, T72N
notes: also called Hv6 Lv1
B5: IP14-H5L1 (antibody, V domains shown)
VH: B1 VH
VL: B1 VL with T20N, G41H, T72N
notes: also called Hv5 Lv1
B6: IP14 Hv0 Lv8 (antibody, V domains shown)
VH: B3 VH
VL: B1 VL with E1D, G41H, K49Y, I58V, P67S, G100Q, L104V
B7: IP14 Hv0 Lv1 (antibody, V domains shown)
VH: B3 VH
VL: B1 VL with T20N, G41H, T72N
B8: IP14 Hv0 Lv7 (antibody, V domains shown)
VH: B3 VH
VL: B1 VL with E1D, T20N, G41H, K49Y, I58V, P67S, T72N, G100Q, L104V
B9: IP14-H5L3 (antibody, V domains shown)
VH: B1 VH
VL: B1 VL with E1D, K49Y, V78L
notes: also called hIP14-H5L3; Hv5 Lv3
B10: IP14-H6L2 (antibody, V domains shown)
VH: B1 VH with Q13K, G16H, Q43K, T71S, S75A, T78S
VL: B1 VL
notes: also called hIP14-H6L2; Hv6 Lv2
B11: IP14-H5L7 (antibody, V domains shown)
VH: B1 VH
VL: B1 VL with E1D, T20N, G41H, K49Y, I58V, P67S, T72N, G100Q, L104V
notes: also called Hv5 Lv7
B12: IP14 Hv0 Lv3 (antibody, V domains shown)
VH: B3 VH
VL: B1 VL with E1D, K49Y, V78L
B13: IP14 Hv0 Lv4 (antibody, V domains shown)
VH: B3 VH
VL: EIVLTQSPDFQSVTPKEKVNITCRASESISNNLHWYQQKPHQSPKLLIYYASQSISGVPSRFSGSGSGTDFNLTINSVEAEDAATYYCQQSNSWPLTFGGGTKLEIKR
B14: IP14 Hv0 Lv6 (antibody, V domains shown)
VH: B3 VH
VL: EIVLTQSPSTLSASVGDRVNITCRASESISNNLHWYQQKPHKAPKLLIYYASQSISGVPSRFSGSGSGTEFNLTISSVQPDDFATYYCQQSNSWPLTFGQGTKVEIKR

molecular target: T1, recombinant human midkine (huMK); experiment: ELISA, plate coated with huMK
Experimental: (§1) The binding specificity and affinity of the humanised anti-MK antibodies to recombinant human MK (huMK) and murine MK (muMK) was assessed by ELISA. ELISA plates (Nunc Immuno MaxiSorp 96 well flat-bottom were coated with 100 uL of 2 ug/mL of either huMK or muMK in 2% BSA/PBS (overnight at room temperature). After washing, blocking (1 h at 37° C.), and washing again, the humanised anti-MK and chimeric antibodies described in Example 1 were analysed for binding to huMK or muMK at concentrations ranging between 3 μg/ml and 0.00004 μg/ml in 2% BSA/PBS (1 h at 37° C.). After washing, the binding of antibody was detected with goat anti-mouse IgG (Fab specific)-HRP conjugate (Sigma, Cat. No. A9917) and SigmaFast OPD substrate (Sigma, Cat. No. P9187). The reaction was stopped with 3 M HCl, absorbance read at 490 nm on a Dynex Technologies MRX TC II plate reader and the binding curves plotted. Binding affinity data for the humanised anti-MK antibodies to huMK and muMK are presented in Table 6 and Table 7 respectively, and in FIG. 3.

Binder | EC50 [nM]
B1 | 0.069
B2 | 0.1
B3 | 0.095
B4 | 0.097
B5 | 0.062
B6 | 0.08
B7 | 0.093
B8 | 0.092
B9 | 0.068
B10 | 0.041
B11 | 0.067
B12 | 0.09
B13 | 0.108
B14 | 0.132

molecular target: T2, recombinant murine midkine (muMK); experiment: ELISA, plate coated with muMK
Experimental: as §1

Binder | EC50 [nM]
B1 | 0.054
B2 | 0.087
B4 | 0.032
B5 | 0.052
B9 | 0.05
B10 | 0.072
B11 | 0.059
